Source: PMC3764169

Target: αVβ3 integrin (human (endogenous in THP-1)) (UniProt P06756)
Chain of UniProt P06756 (P06756 31-1048, chain 1 of 2): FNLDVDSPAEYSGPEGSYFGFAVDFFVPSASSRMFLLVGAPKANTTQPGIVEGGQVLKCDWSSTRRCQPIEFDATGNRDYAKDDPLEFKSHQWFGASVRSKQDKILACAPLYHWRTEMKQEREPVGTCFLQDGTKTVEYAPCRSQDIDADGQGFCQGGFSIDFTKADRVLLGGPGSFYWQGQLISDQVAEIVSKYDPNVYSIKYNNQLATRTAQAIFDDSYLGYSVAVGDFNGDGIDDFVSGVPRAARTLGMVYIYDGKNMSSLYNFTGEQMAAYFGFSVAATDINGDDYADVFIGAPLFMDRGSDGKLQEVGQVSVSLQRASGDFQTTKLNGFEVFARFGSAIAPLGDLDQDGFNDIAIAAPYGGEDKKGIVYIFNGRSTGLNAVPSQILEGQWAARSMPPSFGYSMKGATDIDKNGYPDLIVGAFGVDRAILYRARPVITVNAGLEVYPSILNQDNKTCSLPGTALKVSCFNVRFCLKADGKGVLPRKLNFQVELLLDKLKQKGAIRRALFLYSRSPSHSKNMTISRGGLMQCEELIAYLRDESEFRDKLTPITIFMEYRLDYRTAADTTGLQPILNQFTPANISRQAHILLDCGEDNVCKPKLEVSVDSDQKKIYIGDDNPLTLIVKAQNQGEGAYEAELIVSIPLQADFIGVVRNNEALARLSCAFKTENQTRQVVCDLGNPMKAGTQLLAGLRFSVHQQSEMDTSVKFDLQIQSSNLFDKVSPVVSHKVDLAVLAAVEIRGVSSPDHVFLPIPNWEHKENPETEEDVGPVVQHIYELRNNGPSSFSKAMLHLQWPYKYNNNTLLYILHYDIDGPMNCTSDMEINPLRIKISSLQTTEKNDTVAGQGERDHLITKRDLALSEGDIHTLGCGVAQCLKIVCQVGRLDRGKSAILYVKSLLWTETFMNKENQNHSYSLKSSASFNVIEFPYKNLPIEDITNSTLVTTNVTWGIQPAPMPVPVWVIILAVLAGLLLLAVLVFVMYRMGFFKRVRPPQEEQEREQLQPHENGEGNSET
Chain of UniProt P06756 (P05106 27-788, chain 2 of 2, further chain): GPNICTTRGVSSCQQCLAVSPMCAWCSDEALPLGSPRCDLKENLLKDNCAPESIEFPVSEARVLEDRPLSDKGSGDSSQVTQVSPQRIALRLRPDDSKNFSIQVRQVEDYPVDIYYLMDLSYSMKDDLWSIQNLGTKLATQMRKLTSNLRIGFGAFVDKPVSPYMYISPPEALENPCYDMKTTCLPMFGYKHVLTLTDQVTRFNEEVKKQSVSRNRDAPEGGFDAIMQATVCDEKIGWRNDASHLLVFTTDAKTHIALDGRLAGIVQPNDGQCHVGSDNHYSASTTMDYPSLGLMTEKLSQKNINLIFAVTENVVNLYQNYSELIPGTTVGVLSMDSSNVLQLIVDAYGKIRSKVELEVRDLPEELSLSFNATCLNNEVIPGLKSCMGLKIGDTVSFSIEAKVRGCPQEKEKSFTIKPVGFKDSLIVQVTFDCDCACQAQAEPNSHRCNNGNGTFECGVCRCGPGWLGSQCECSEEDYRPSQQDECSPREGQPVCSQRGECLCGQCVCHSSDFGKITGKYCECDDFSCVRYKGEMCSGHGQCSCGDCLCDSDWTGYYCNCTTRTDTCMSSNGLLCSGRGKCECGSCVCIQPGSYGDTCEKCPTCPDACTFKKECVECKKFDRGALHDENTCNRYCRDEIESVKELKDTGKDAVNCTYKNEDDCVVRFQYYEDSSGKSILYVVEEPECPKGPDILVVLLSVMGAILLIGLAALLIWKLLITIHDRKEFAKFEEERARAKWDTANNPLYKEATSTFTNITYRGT

Substance: Lunasin (peptide)
- decrease in free intracellular Ca^2+ (Fluo-4, live-cell confocal imaging) in LPS-induced THP-1 macrophages after lunasin (1 µM), over 6.67 min (400 frames); resurgence after 30 min: 34.6%
